Paper PMC3935945, “Insight into Highly Conserved H1 Subtype-Specific Epitopes in Influenza Virus Hemagglutinin” (PLoS ONE, 2014)

Target: T1, recombinant hemagglutinin (HA) of 2009 pandemic virus A/Korea/01/2009 (KR01) (Influenza A virus A/Korea/01/2009 (H1N1), strain)
T1 construct: also called KR01 HA; H1N1 HA
Assay: crystal structure
Details: both partners purified

B1: Fab fragment from H1-specific monoclonal antibody GC0587 (Fab, V domains shown)
VH: VKLQQSGGGVVQPGGSLRLSCAASGFTFSDYDMSWIRQAPGKGLEWVSGILGGSERSYYRDSVKGRFTISRDNSRKTLYLQMNSLRAEDTAVYYCARHGSPGYTLYAWDYWGQGTMVTVSS
VL: DIQMTQSPASLAVSPGQRATITCRASESVSNYGINFINWFQQKPGQPPKLLIYTASNKGTGVPARFSGSGSGTDFTLTINPVEAEDTANYFCQQTKEVPYTFGGGTKLEIK
notes: also called Fab0587
Q: Does B1 bind?
A: Result: binds
